From patent US20220348674A1

Legend:
[1] = target: cell surface human CD40 on HEK-CD40 cells (human) (UniProt P25942); assay: flow cytometry on HEK-CD40 cells; mAb at 0.02 ug/ml
[2] = target: cell surface human CD40 on HEK-CD40 cells (human) (UniProt P25942); assay: flow cytometry on HEK-CD40 cells; mAb at 1.7 ug/ml
[3] = target: cell surface human CD40 on HEK-CD40 cells (human) (UniProt P25942); assay: flow cytometry on HEK-CD40 cells; mAb at 0.007 ug/ml
[4] = target: cell surface human CD40 on HEK-CD40 cells (human) (UniProt P25942); assay: flow cytometry on HEK-CD40 cells; mAb at 0.06 ug/ml
[5] = target: cell surface human CD40 on HEK-CD40 cells (human) (UniProt P25942); assay: flow cytometry on HEK-CD40 cells; mAb at 12 ug/ml
[6] = target: cell surface human CD40 on HEK-CD40 cells (human) (UniProt P25942); assay: flow cytometry on HEK-CD40 cells; mAb at 5 ug/ml
[7] = target: cell surface human CD40 on HEK-CD40 cells (human) (UniProt P25942); assay: flow cytometry on HEK-CD40 cells; mAb at 0.56 ug/ml
[8] = target: cell surface human CD40 on HEK-CD40 cells (human) (UniProt P25942); assay: flow cytometry on HEK-CD40 cells; mAb at 0.78 ug/ml (so in the source)
[9] = target: CD40 on Ramos-Blue cells (human)
[10] = target: cell surface human CD40 on HEK-CD40 cells (human) (UniProt P25942); assay: flow cytometry, titration on HEK-CD40 cells, CD40 MFI, anti-human IgG secondary antibody

Chain of CP-870,893, IgG2 isotype fully human anti-CD40 mAb (antibody) (VH): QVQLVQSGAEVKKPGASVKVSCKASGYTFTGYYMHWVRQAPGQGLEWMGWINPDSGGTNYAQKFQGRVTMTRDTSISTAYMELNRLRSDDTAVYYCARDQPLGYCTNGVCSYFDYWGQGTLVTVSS
Chain of CP-870,893, IgG2 isotype fully human anti-CD40 mAb (antibody) (VL): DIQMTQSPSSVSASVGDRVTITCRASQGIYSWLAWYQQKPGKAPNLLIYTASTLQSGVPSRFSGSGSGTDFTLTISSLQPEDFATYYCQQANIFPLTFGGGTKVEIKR
Chain of cell surface human CD40 on HEK-CD40 cells (human) (P25942 21-277): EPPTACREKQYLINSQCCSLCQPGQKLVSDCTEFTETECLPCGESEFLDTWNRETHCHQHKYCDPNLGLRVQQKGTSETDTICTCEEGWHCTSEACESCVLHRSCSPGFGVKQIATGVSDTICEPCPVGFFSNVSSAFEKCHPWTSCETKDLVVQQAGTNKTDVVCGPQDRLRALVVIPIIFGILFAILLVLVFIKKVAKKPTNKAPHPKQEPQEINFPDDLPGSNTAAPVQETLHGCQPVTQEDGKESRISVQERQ

| Substance | MFI [1] | MFI [2] | MFI [3] | MFI [4] | MFI [5] | MFI [6] | MFI [7] | MFI [8] | EC50, w/o PDL1 (Ramos-Blue NFkB-SEAP reporter, OD630, HEK-control cells added) [9] [nM] | EC50, with PDL1 (Ramos-Blue NFkB-SEAP reporter, OD630, HEK-PDL1 cells added) [9] [nM] | EC50 [10] [µg/mL] |
| --- | --- | --- | --- | --- | --- | --- | --- | --- | --- | --- | --- |
| Human IgG1 isotype control (Bioxell, Catalog BE 0297) (antibody) | 40.1 | 61.3 | 28.3 | 40.2 | 73.7 | 112 | 30.7 | 32.3 |  |  |  |
| CP-870,893, IgG2 isotype fully human anti-CD40 mAb (antibody) | 635 | 14100 | 271 | 1530 | 23700 | 20900 | 6790 | 3670 | 0.15 | 0.12 | 1.58 |
| APX005m, humanized anti-CD40 mAb, IgG1 isotype with S267E mutation (antibody) | 2360 | 23300 | 1150 | 4590 | 24700 | 24500 | 18200 | 9840 | 2.6 | 2.67 | 0.28 |
